Results from patent US20250382371A1 (NATIONAL INSTITUTES OF BIOMEDICAL INNOVATION HEALTH AND …, published 2025).

T1: hFCRL1/FcRH1-His (manufactured by R&D Systems) (human, UniProt Q96LA6 17-307)
T1 construct: Bought His-tagged recombinant human FCRL1; The protein in the assay is soluble and is probably only the extracellular part; not shown: His tag
T1 sequence: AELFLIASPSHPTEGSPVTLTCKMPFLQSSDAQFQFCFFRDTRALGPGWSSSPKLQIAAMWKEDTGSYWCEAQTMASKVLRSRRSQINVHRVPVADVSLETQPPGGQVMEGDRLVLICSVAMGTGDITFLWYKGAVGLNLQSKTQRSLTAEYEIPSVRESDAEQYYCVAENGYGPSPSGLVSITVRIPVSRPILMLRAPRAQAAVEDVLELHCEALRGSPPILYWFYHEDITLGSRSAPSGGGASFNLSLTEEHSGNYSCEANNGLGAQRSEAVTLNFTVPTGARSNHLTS


Tests used:
[1] = target: T1, hFCRL1/FcRH1-His (manufactured by R&D …); experiment: SPR (Biacore 8K+), antibody captured by anti-human IgG, hFCRL1/FcRH1-His as analyte; Steady state affinity model
Experimental: (§1) For the purpose of comparing the binding activity of the DK681 chimeric antibody (chDK681) and the DK1142 chimeric antibody (chDK1142) obtained by connecting […] of the DK681 and DK1142 mouse antibodies obtained in Example 4 to a human IgG1 (S239C) constant region with the binding activity of the anti-FCRL1 humanized antibody obtained in Example 10 to human FCRL1, the binding activity to hFCRL1/FcRH1-His (manufactured by R&D Systems) was measured by a surface plasmon resonance method (SPR method) using Biacore8K+ (manufactured by Cytiva).
(§2) The binding activity of the anti-FCRL1 antibody was measured as follows. An anti-human IgG antibody was immobilized on a CM5 sensor chip (manufactured by Cytiva) in accordance with the attached protocol using a Human Antibody Capture Kit (manufactured by Cytiva). An anti-FCRL1 antibody prepared at 5 μg/mL was added to a flow cell on which the Anti-human IgG antibody was immobilized at a flow rate of 10 μL/min for 30 seconds.
(§3) Next, hFCRL1/FcRH1-His, which is prepared stepwise to 5 concentrations by 3-fold dilution from 10000 ng/ml, was monitored at a flow rate of 30 μL/min for a binding reaction for 180 seconds and a dissociation reaction for 400 seconds. For the obtained sensorgram, a kinetic constant of each antibody was calculated by fitting by a Steady state affinity model or a 1:1 Binding model using Bia Evaluation Software (manufactured by Cytiva). The calculated binding rate constant (ka), dissociation rate constant (kd) and dissociation constant [KD] of each antibody are shown in Table 5. The chDK681 is referred to as DK681 F01, and the chDK1142 is referred to as DK1142 F02.

[2] = target: T1, hFCRL1/FcRH1-His (manufactured by R&D …); experiment: SPR (Biacore 8K+), antibody captured by anti-human IgG, hFCRL1/FcRH1-His as analyte; 1:1 Binding model
Experimental: as §1, §2, §3

[3] = target: T1, hFCRL1/FcRH1-His (manufactured by R&D …); experiment: SPR (Biacore 8K+), antibody captured by anti-human IgG, hFCRL1/FcRH1-His as analyte; Steady state affinity model; kinetic rate constant of the same sensorgram
Experimental: as §1
(§4) The binding activity of the anti-FCRL1 antibody was measured as follows. An anti-human IgG antibody was immobilized on a CM5 sensor chip (manufactured by Cytiva) in accordance with the attached protocol using a Human Antibody Capture Kit (manufactured by Cytiva). […]
as §3, with “The chDK681 is referred to as DK681 F01, and the chDK1142 is referred to as DK1142 F02.” left out

[4] = target: T1, hFCRL1/FcRH1-His (manufactured by R&D …); experiment: SPR (Biacore 8K+), antibody captured by anti-human IgG, hFCRL1/FcRH1-His as analyte; Steady state affinity model; KD from Steady state affinity model, not from kd/ka
Experimental: as §1, §4
as §3, with “The chDK681 is referred to as DK681 F01, and the chDK1142 is referred to as DK1142 F02.” left out

Binder | Kd [1] [nM] | koff [1] [s⁻¹] | kon [1] [M⁻¹ s⁻¹] | Kd [2] [nM] | koff [2] [s⁻¹] | kon [2] [M⁻¹ s⁻¹] | also measured
DK681 humanized antibody DK681 F12, human IgG1 (S239C) (antibody) heavy: not shown light: DIVMTQSPDSLAVSLGERATMNCKSSQSLLYSSNQKNYLAWYQQKPGQSPKLLIYWASTRESGVPDRFSGSGSGTDFTLTISSLQAEDVAIYYCQQYSNYPTFGQGTKVEIK | 9.15 | 0.00259 | 385000 |  |  |  | 
DK681 humanized antibody DK681 F13, human IgG1 (S239C) (antibody) heavy: not shown light: DIVMTQSPDSLAVSLGERATMNCKSSQSLLYSSNQKNYLAWYQQKPGQSPKLLIYWASTRESGVPDRFSGSGSGTDFTLTISSLQAEDVAIYYCQQYSNYPTFGQGTKVEIK | 9.84 | 0.00297 | 387000 |  |  |  | 
DK1142 humanized antibody DK1142 F22, human IgG1 (S239C) (antibody) heavy: not shown light: DIVMTQSPLSLPVTLGEPASISCRSSQSIVHSNGNTYLEWYLQKPGQSPQLLIYKVSNRFSGVPDRFSGSGSGTDFTLKISRVEAEDVGVYYCFQGSHVPWTFGQGTKVEIK |  |  |  | 11.1 | 0.0428 | 3.85e+06 | 
DK681 chimeric antibody (chDK681), human IgG1 (S239C) (antibody, also called DK681 F01; not shown: human kappa light chain constant region (pFUSE2-CLIg-hk vector)) heavy: not shown light: DIVMSQSPSSLAVSVGEKVTMSCKSSQSLLYSSNQKNYLAWYQQKPGQSPKLLIYWASTRESGVPDRFTGSGSGTDFTLTISSVKAEDLAIYYCQQYSNYPTFGSGTKLEIK |  |  |  |  |  |  | koff [3]: 0.00105 s⁻¹; kon [3]: 447000 M⁻¹ s⁻¹; Kd [4]: 6.65 nM

Second part, led by results:

Kd [1] [nM] | koff [1] [s⁻¹] | kon [1] [M⁻¹ s⁻¹] | Kd [2] [nM] | koff [2] [s⁻¹] | kon [2] [M⁻¹ s⁻¹] | Binder | also measured
 |  |  | 12.8 | 0.0686 | 5.36e+06 | DK1142 humanized antibody DK1142 F21, human IgG1 (S239C) (antibody) heavy: not shown light: DIVMTQSPLSLPVTLGEPASISCRSSQSIVHSNGNTYLEWYLQKPGQSPQLLIYKVSNRFSGVPDRFSGSGSGTDFTLKISRVEAEDVGVYYCFQGSHVPWTFGQGTKVEIK | 
 |  |  | 12.2 | 0.0274 | 2.24e+06 | DK1142 humanized antibody DK1142 F24, human IgG1 (S239C) (antibody) heavy: not shown light: DVVMTQSPLSLPVTLGEPASISCRSSQSIVHSNGNTYLEWYLQKPGQSPKLLIYKISNRFSGVPDRFSGSGSGTDFTLKISRVEAEDVGVYYCFQGSHVPWTFGQGTKVEIK | 
